Where no end group is shown, it is not given here.
Tests used:
[1] = Salt stability of modified and unmodified nanoparticles by UV-Vis absorbance; type: physicochemical; conditions: absorption scan, increasing NaCl
Description: FIG. 2. Salt stability of modified and unmodified nanoparticles measured using UV-Vis absorbance spectroscopy. Salt concentration was increased using 2 μL for unmodified nanoparticles and 15 μL of 4.11 M NaCl every 15 min. Wavelength scans of (A) 5 nm unmodified Au nanoparticles and (B) Au-Cap nanoparticles in solution with increasing NaCl concentration. Shaded area under the curves in A and B were used to calculate aggregation parameter. C. Aggregation parameter plotted with mean±SD for n=3 for increasing NaCl concentration for 5 nm unmodified Au and Au-Cap.
Peptide-modified (Au-Cap) and unmodified particles were tested to check their salt stability. Au and Au-Cap nanoparticles were added to semi-micro cuvettes and serial additions of NaCl solution were added every 15 min followed by a wavelength scan from 400-900 nm (Beckman DU 730, Fullerton, Calif.). Aggregation parameter (AP) used to quantify aggregation was calculated using the equation AP=(A−A0)/A0. A is the integral of absorbance from 600 to 700 nm, and A0 is the integral of absorbance from 600 to 700 nm of the initial solution without salt added (see FIG. 2 area under the curve).

[2] = biological target: T1, αvβ3 integrins (Homo sapiens, UniProt P05106+P06756); assay: Anti-adhesion assay on vitronectin-coated wells; type: cell-based; conditions: HeLa cells
T1 construct: host or cells: HeLa cells, harvested by scraping
Description: HeLa cells (ATCC, Manassas, Va.) were cultured in DMEM medium (Invitrogen, Carlsbad, Calif.) supplemented with 10% Bovine Growth Serum (BGS, Hyclone, Logan, Utah). The cells were cultured at 37° C., with 98% humidity and 5% CO2. Cells were regularly subcultured using trypsin. 96-well plates were coated with human vitronectin by incubating a vitronectin solution (50 μL of 3 μg/mL, Invitrogen, Carlsbad, Calif.) in the well for 12-hrs at 37° C. The wells were washed three times with PBS and blocked with BSA (50 μL of 2% BSA in PBS) for 30 minutes at 37° C. The wells were washed three times with PBS and 100 μL/well of serum-free DMEM was added before chilling on ice. HeLa cells were harvested by scrapping using cell scrapers (USA Scientific, Ocala, Fla.), pelleted, and resuspended in ice cold serum-free DMEM to 400,000 cells/mL. 200 μL of serum-free DMEM was added to 50 μL of Au-Cap-RGD solution and vortexed before 250 μL of cell solution was added to the cells and placed in ice for 15 minutes. 100 μL/well of cell solution was added and allowed to incubate at 37° C. for 50 minutes. The plate was submerged in PBS in a Ziploc bag and centrifuged upside down for 10 minutes at 250 g. The plate was washed gently with additional PBS and removed. Remaining liquid was removed from the wells. The cells were fixed using 4% paraformaldehyde solution for 15 minutes and washed 3 times with PBS. Crystal violet solution was added to each well and incubated for 1 hr. The wells were then washed with milliQ water until no crystal violet was visible in solution. Crystal violet was solubilized using 10% acetic acid plate for 15 min and the absorbance at 570 nm was taken using the PowerWave microplate reader (BioTek, Winooski, Vt.).

[3] = test system: HeLa cells; assay: Cell toxicity (proliferation) assay; type: cell-based; conditions: all concentrations tested up to 17.9×10^10 particles/well
Description: FIG. 4. Cell toxicity (proliferation) assay for Au-Cap nanoparticles and DNA/PEI-Au polyplexes. HeLa cells were plated in 96-well plates (7000 cells/well) for 12-hrs before exposing the cells to Au-Cap nanoparticles or DNA/PEI-Au-Cap-RGD-ASA polyplexes at varying concentrations of Au nanoparticles (1.7 μL/well) and testing for cell proliferation. The data was normalized to absorbance of untreated samples to calculate the percent viability for each sample (n=3).
To determine whether 5 nm Au-Cap or DNA/PEI polyplexes modified with 5 nm Au-RGD-ASA were toxic to cells, the proliferation rate of HeLa cells exposed to Au-Cap or DNA/PEI-Au-RGD-ASA was compared to that of untreated cells (FIG. 4). Au-Cap nanoparticles were not toxic to cells for all the concentrations tested up to 17.9×10^10 particles/well (equivalent to 80×10^10 particles/m DNA).

T1 sequence (P06756 31-889 limits assumed): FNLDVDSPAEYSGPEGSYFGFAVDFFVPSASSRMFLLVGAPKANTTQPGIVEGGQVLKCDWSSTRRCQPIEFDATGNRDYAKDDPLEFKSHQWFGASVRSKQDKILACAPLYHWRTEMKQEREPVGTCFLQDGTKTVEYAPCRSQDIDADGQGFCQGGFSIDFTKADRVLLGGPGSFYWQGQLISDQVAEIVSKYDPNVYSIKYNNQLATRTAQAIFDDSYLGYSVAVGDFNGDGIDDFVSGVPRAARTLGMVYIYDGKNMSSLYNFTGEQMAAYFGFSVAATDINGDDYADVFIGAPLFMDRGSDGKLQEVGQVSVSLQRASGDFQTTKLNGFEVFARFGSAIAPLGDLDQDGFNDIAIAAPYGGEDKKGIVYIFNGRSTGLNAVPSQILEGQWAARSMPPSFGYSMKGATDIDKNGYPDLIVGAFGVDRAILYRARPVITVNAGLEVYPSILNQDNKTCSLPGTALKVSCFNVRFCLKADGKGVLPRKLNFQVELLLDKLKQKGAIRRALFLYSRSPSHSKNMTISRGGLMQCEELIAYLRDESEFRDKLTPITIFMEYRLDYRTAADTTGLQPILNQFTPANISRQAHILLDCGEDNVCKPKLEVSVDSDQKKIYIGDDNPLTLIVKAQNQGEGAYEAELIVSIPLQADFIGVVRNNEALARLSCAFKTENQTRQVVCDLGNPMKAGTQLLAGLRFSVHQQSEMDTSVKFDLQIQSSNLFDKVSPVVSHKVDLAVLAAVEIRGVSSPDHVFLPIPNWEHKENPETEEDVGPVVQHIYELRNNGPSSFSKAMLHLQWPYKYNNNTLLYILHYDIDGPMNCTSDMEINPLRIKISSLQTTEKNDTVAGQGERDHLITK
T1 sequence (P06756 891-1048 partner limits assumed): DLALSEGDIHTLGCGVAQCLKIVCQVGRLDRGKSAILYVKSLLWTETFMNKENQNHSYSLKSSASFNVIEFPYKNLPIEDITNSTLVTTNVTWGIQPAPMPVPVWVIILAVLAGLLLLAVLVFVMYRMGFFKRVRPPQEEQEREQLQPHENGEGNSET
T1 sequence (P05106 27-788): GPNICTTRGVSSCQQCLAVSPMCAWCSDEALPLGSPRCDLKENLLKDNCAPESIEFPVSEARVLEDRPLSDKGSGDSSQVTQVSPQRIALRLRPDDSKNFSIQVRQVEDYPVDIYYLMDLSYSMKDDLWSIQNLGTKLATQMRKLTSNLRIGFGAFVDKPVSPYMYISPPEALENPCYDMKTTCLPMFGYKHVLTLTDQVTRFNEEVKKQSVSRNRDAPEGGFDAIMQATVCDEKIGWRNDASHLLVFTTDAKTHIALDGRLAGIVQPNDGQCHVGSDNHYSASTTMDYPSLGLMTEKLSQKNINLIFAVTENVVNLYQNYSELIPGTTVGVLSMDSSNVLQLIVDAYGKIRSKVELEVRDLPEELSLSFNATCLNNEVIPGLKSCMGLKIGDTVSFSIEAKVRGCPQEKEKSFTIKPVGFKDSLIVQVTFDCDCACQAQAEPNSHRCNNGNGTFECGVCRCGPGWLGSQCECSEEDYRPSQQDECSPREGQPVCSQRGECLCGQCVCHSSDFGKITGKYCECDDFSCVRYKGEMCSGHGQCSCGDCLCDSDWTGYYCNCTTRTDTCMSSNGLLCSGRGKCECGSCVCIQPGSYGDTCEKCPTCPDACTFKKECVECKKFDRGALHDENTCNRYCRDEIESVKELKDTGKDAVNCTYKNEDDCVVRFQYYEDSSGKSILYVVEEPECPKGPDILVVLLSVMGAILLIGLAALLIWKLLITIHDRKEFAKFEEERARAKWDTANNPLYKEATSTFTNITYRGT

Substance	NaCl concentration up to which nanoparticles are stable [1]	Effect on cell attachment [2]	Toxicity to cells [3]	Equivalent amount of RGD required compared to monovalent free RGD peptide ([2]; n=3)	IC50 ([2]; equivalent RGD peptide concentration, read-out: IC50 concentration at which 50% of cell adhesion is inhibited)
Au-Cap: 5 nm gold nanoparticles stabilized with self-assembling peptide CCVVVT (Cap) (CCVVVT-OH; cysteine pairing not given here; also: attached to 5 nm gold nanoparticles)	up to 500 mM	did not affect cell attachment	not toxic	–	–
Au-Cap-RGD: RGD modified gold nanoparticles formed with mixtures of Cap and Cap-RGD peptides (peptide 1 Ac-CCVVVTGRGDSPSSK-OH; peptide 2 CCVVVT-OH; cysteine pairing not given here; also: mixture of Cap and Cap-RGD peptides on gold nanoparticles)	–	–	–	required less	~100 nM

Source: US8263133B2, “Multivalent clustering targeting strategy for drug carriers” (The Regents of the University of California, priority 2009, dated 2012)
